Assay results: the supplement of paper PMC9170038
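Also: bound reporter read as fluorescence of individual clusters on recovered sequencing chips by microscopy, with normalized cluster intensities fitted with a binding model.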

Each sequence was assayed on K4 kissing-loop RNA reporter (assay: apparent KD of K4 kissing-loop reporter; higher = weaker reporter binding). Settings: Eterna round: R107; input ligand: tryptophan 2.4 mM.
Description: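 RNA-MaP round R107: designed RNA switches with theophylline, tryptophan, arginine or FMN aptamers are transcribed on-chip within common flanks. They are titrated with a labelled K4 kissing-loop RNA reporter in RNA-MaP buffer (100 mM Tris pH 7.5, 80 mM KCl, 4 mM MgCl2), without ligand or with the indicated ligand. Median apparent KD per design.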
For “AUUCGCUCCACUGAUACCAGUCAUCGAGCAAGAUGCUAAGCCAGUGAUGUUGGCAUGAAUGACCCUUGGCAGCAGUACACUAAGG [Theo B SS t7]”, the “apparent KD of K4 kissing-loop reporter” value was 60 nM. In the case of “UGGCGAGUGAUGUUCGUUGUUGUAGUGUGUCGAGGACCGGUACGGCCGCCACUCGAGUUGGUUGUUGUUGUUGCUGUUGUUGCUG [#03 K4 Tryptophan A Same State]”, the “apparent KD of K4 kissing-loop reporter” value is reported as 99 nM. With “CGGCGCGGCGCGGCCGCCACUGCGCCUGGGUGCUCGCCGAGUGAUGUUCGUCGGCGGUUGGGUGGCAGGACCGGGUGCCGGCCCG [BDazzled - #18 SS Tryptophan B]” the “apparent KD of K4 kissing-loop reporter” value was 768 nM. “UGUUUUUUUUUGAUGUUUGUUGUAAAAUGGCAGGAUAUCGUAGAGGCGAGAAGGGCUUUUAUGCGUUAUGAGUGAUGUUUGUAGG [vevvmullin]” was tested, and the “apparent KD of K4 kissing-loop reporter” value was 284 nM. “AGGUCCGAGCCCGGAAGGGCUCGGACCUGUUAGGAUAUGACGUUAUUCAGAAGGGAUGGGUGGAGUGAUGUUCCACCCGAGAGGG [#2 Same State - FMN A Attempt #17 (HarryS)]” was tested, and the “apparent KD of K4 kissing-loop reporter” value was 98.3 nM. For “AAGAAGGUCAAAGACCUUCGUGCACCUGAUACCAGUCGCGAAAGCGACCCUUGGCAGCAGGGCAGUGAUGUUGCCAAGUGCACAA [Omei KL Theo A SS A v1]”, the “apparent KD of K4 kissing-loop reporter” value was 823 nM. “AUUCUAUUGUGAAGGAGCGCGUAUAGUAGUGAUGUUACUAUAAUAAUAGAUAUUUAAUUCUCGCAGGUAGGUCGCACAAUAUAUA [JR_Nu_ExcArginiB_Sub025]” was tested, and the “apparent KD of K4 kissing-loop reporter” value was 92 nM. In the case of “AGGUCACAACUACAGUGAUGUUGUGGAGAGCAGGAUAUGCAGAAAUGCAGAAGGGCUCGCUCUCUAGUGACCGAUCAAAAGAUCA [Omei KL FMN A SS A v9]”, the “apparent KD of K4 kissing-loop reporter” value is reported as 532 nM. With “CCUAUCUCAUACGAUACCAGUCCGAGUGAUGUUCGAAAAUAAAUAAAUUUGCCAUAUAAUGACCCUUGGCAGCGUAUGGGAUAGG [Ex Theophylline B K4 11]” the “apparent KD of K4 kissing-loop reporter” value was 300 nM. In the case of “CAGAAGCAUUCGGCCGCCACUCCAGUGAUGUUGGAGCGGGAGGGCCUUAAACCUCGAGGCUGCUGGAGGACCGGGAAUGUUGAGG [Beerso]”, the “apparent KD of K4 kissing-loop reporter” value is reported as 269 nM. With “GCCGUACGCAUGGAUACCAGAUGGCACUAUAAUCUACCAGAGUGAUGUUCUGGCCUGCCCAUCCCUUGGCAGCCAUGCGUACGGC” the “apparent KD of K4 kissing-loop reporter” value was 206 nM. With “UGUGUUUACCUGACUCAGUGAUGUUGAGAAGGAGCGUGCGAAGGCACAGGUAGGUCGCUCAACCUAAAUUCAGGUGAGCACUAAA” the “apparent KD of K4 kissing-loop reporter” value was 250 nM. “CUCGAGUGAUGUUCGAUUAUGUAUACAGAUACCAGUGAAUUUUAACACCCUUGGCAGCUGGUAGAAUCUUUGUAAUUUUAACUAG [JR_ExcTheophyA_Sub002]” was tested, and the “apparent KD of K4 kissing-loop reporter” value was 134 nM. For “UUGUUUGGUUGAGAGGUUGGGCGAGAUGAUACCAGUAGAGAAGAGUACCCUUGGCAGCAUAAGAAAGAUAUAGUGAUGUUGUAUA [SSTheophA.P]”, the “apparent KD of K4 kissing-loop reporter” value was 396 nM. For “GGAGUGAUGUUCCAUUUUUAAAUCUCCGAUACCAGUAUGGAAACAUACCCUUGGCAGCGGUAAACCGCAGAUUAGGAAACUAGUC [Theophylline A K4 1]”, the “apparent KD of K4 kissing-loop reporter” value was 561 nM. In the case of “AAAUAGAUCAGUCAACCAGUGAUGUUGGAAGGAGCGUGCGAAAGCACAGGUAGGUCGCCAGAAUAAAAGUGGCUGAUCAAAAUAA”, the “apparent KD of K4 kissing-loop reporter” value is reported as 214 nM. In the case of “UGAUACCAGACGGCCGCCACUCCCGCAGGUCAAAGACCUGCGAAGAAGGUUCUUUAGUGAUGUUGGAGGACCGGGUCUGGUAUCU [FiskerMod 21 - Jieux - Exclusion - Tryptophan B]”, the “apparent KD of K4 kissing-loop reporter” value is reported as 523 nM. “AAGCCAGAGAUUGCUGCGGGUUCCAGAGAUACCAGCCGUAUUGAAGGCCCUUGGCAGCUCGAGUGAUGUUCGAGCCGUCUCCGGC [Onte]” was tested, and the “apparent KD of K4 kissing-loop reporter” value was 113 nM. “AAAAUAAGCCAGUGAUGUUGGUACCCAGAUACCAGCGACGAAAGUCGCCCUUGGCAGCUGUGGACGUACAAAAUAAGUACGUCCU” was tested, and the “apparent KD of K4 kissing-loop reporter” value was 303 nM. With “AGGUAGUCCCUUGUUGUCAUCGAAGAUGAACGAGGACCGGUACGGCCGCCACUCGGAGUGAUGUUCCGAUGGCUGCAAAAUAAAA [MatMod 23 - Jieux - Exclusion - Tryptophan A]” the “apparent KD of K4 kissing-loop reporter” value was 103 nM. With “AAUAAAAUCACGGCCGCCACUGAUUUUUUUAUUAGGAGUGAUGUUCCUAUGACUAUAUUAUUUAACAGGACCGGGUGAAUAUUUA [JR_SSTryptoB_Sub023]” the “apparent KD of K4 kissing-loop reporter” value was 74.5 nM. “UAGAGGAGACUCUAAUUCCUUAAGUCCGAAGGAGCGACCCAAUGGUCAGGUAGGUCGCGGACAAUCCUAGUGAUGUUAGGAUCUG [Arg A SS t5a]” was tested, and the “apparent KD of K4 kissing-loop reporter” value was 129 nM. “UAACGCCACUAAGAUACCAGACAUACAGAUCGGAUCUCCUAAAGAGAGUGAUGUUCUCUAGUCCCUUGGCAGCUUCUGGACUCCC [theeternabot_sameState_KL_Theo_B_9]” was tested, and the “apparent KD of K4 kissing-loop reporter” value was 291 nM. In the case of “GGCACUUUUGCUUGGAACCGUCAAGCUCUUUAGGAUAUCUGGAAACAGAGAAGGAAAGACCUACAGAGUGAUGUUCUGCGUGCCU”, the “apparent KD of K4 kissing-loop reporter” value is reported as 144 nM. With “UUAGGAGUGGAAGGAUAUCCUGGUGUGGGUGAUGUUAGUGAUGUUGAAAGUGCAGUGAUGUUGCGCGGAGAAGGUCCGGUGUUGA [BDazzled - #7 - Exc. FMN B]” the “apparent KD of K4 kissing-loop reporter” value was 157 nM. With “UGAUACCAGACUGAUACCAGCAAGUGAUGUUUGUUGAUCUAAAGCAGUCAAAGACUGCCUUGCCCUUGGCAGCAGUCUGGUAUCU [TheoBX 27 #SwitchBubble #StaticStem]” the “apparent KD of K4 kissing-loop reporter” value was 901 nM. “CCUAUCUGUUACGAUACCAGUCAAAGAUAUUUUAUCAAUGCCCUCACCGAGUGAUGUUCGGACCCUUGGCAGCGUCUGGGAUAGG [pnnbmullin]” was tested, and the “apparent KD of K4 kissing-loop reporter” value was 150 nM.
